Test results taken from patent publication US20180272008A1.
Ends that are not written are not given here.

Target: IgE of patient serum 3 (human)
Assay: ELISA: serum IgE captured on an anti-human IgE coated plate, epitope 2 peptide (FITC-tagged) titrated, fluorescence (RFU)

Binder: ERDPYSPSQDPYSPS (also: FITC tag, site not given here) [FITC-tagged epitope 2 peptide of Ara h 2]
- EC50 (read off the curve): 10 µM
